B1: LM609 grafted antibody variant L30 (Fab, V domains shown)
VH: QVQLVESGGGVVQPGRSLRLSCAASGFTFLSYDMSWVRQAPGKGLEWVAKVSSGGGSTYYLDTVQGRFTISRDNSKNTLYLQMNSLRAEDTAVYYCARHNYGSFAYWGQGTTVTVSS
VL: EIVLTQSPATLSLSPGERATLSCQASQSISNHLHWYQQRPGQAPRLLIRYRSQSISGIPARFSGSGSGTDFTLTISSLEPEDFAVYYCQQSGSWPHTFGGGTKVEIK
notes: Fab
B2: LM609 grafted antibody variant M102 (Fab, V domains shown)
VH: B1 VH with L30S, Y106M
VL: B1 VL
notes: Fab
B3: LM609 grafted antibody variant D101 (Fab, V domains shown)
VH: B1 VH with L30S, A105D
VL: B1 VL
notes: Fab
B4: LM609 grafted antibody variant E102 (Fab, V domains shown)
VH: B1 VH with L30S, Y106E
VL: B1 VL
notes: Fab
B5: LM609 grafted antibody variant E64 (Fab, V domains shown)
VH: B1 VH with L30S, Q65E
VL: B1 VL
notes: Fab
B6: LM609 grafted antibody Fab (Fab, V domains shown)
VH: B1 VH with L30S
VL: B1 VL
notes: Fab expressed from M13 phage vector, human kappa chain, peptide tag on the carboxyl-terminus of the heavy chain; also called LM609 grafted Fab; parent LM609 grafted antibody
B7: LM609 grafted antibody combinatorial clone C59 (Fab, V domains shown)
VH: B1 VH with L30S, L61P, Y106D
VL: B1 VL with H32F
notes: Fab
B8: LM609 grafted antibody combinatorial clone 6D1 (Fab, V domains shown)
VH: B1 VH with L30S, L61P, A105Y, Y106S
VL: B1 VL with H96L
notes: Fab
B9: LM609 grafted antibody combinatorial clone C119 (Fab, V domains shown)
VH: B1 VH with L30S, L61P, Y106S
VL: B1 VL with G92N
notes: Fab
B10: LM609 grafted antibody combinatorial clone 2G4 (Fab, V domains shown)
VH: B1 VH with L30S, Y106S
VL: B1 VL with H96L
notes: Fab
B11: LM609 grafted antibody combinatorial clone C37 (Fab, V domains shown)
VH: B1 VH with L30S, A105Y, Y106E
VL: B1 VL with H96L
notes: Fab
B12: LM609 grafted antibody combinatorial clone V357D (Fab, V domains shown)
VH: B1 VH with L30S, Y106D
VL: B1 VL with H32F
notes: Fab; V357D is a clone name, not a substitution
B13: LM609 grafted antibody combinatorial clone 17 (Fab, V domains shown)
VH: B1 VH with L30S, Y106S
VL: B1 VL with H32F
notes: Fab
B14: LM609 grafted antibody combinatorial clone 6H6 (Fab, V domains shown)
VH: B1 VH with L30S, Y101H, Y106S
VL: B1 VL with H96L
notes: Fab
B15: LM609 grafted antibody combinatorial clone C176 (Fab, V domains shown)
VH: B1 VH with L30S, L61P, Y106T
VL: B1 VL with H32F
notes: Fab
B16: LM609 grafted antibody combinatorial clone 6G1 (Fab, V domains shown)
VH: B1 VH with L30S, L61P, Y106S
VL: B1 VL with H96L
notes: Fab
B17: LM609 grafted antibody combinatorial clone 8F9 (Fab, V domains shown)
VH: B1 VH with L30S, L61P, Y101H, Y106S
VL: B1 VL with H96L
notes: Fab
B18: LM609 grafted antibody combinatorial clone 7 (Fab, V domains shown)
VH: B1 VH with L30S, L61P, Y101H, Y106S
VL: B1 VL with H32F
notes: Fab
B19: LM609 grafted antibody combinatorial clone C29 (Fab, V domains shown)
VH: B1 VH with L30S, L61P, Y101H, A105Y, Y106S
VL: B1 VL with H96L
notes: Fab
B20: LM609 grafted antibody combinatorial clone 56 (Fab, V domains shown)
VH: B1 VH with L30S, L61P, Y106S
VL: B1 VL with H32F
notes: Fab

From patent publication US20060204492A1 (published 2006) come the findings set out here.

Residue numbers refer to the chain shown, from its start. Numbers in names are those of the source.

The term Kd denotes the equilibrium constant for the complex coming apart. The koff is the first-order rate constant of dissociation. A low value points to slow dissociation. Broadly, the kon is a measure of how fast the partners come together. High values mean fast association, low ones slow association.

T1 sequence (P06756 31-1048, form in doubt, chain 1 of 2): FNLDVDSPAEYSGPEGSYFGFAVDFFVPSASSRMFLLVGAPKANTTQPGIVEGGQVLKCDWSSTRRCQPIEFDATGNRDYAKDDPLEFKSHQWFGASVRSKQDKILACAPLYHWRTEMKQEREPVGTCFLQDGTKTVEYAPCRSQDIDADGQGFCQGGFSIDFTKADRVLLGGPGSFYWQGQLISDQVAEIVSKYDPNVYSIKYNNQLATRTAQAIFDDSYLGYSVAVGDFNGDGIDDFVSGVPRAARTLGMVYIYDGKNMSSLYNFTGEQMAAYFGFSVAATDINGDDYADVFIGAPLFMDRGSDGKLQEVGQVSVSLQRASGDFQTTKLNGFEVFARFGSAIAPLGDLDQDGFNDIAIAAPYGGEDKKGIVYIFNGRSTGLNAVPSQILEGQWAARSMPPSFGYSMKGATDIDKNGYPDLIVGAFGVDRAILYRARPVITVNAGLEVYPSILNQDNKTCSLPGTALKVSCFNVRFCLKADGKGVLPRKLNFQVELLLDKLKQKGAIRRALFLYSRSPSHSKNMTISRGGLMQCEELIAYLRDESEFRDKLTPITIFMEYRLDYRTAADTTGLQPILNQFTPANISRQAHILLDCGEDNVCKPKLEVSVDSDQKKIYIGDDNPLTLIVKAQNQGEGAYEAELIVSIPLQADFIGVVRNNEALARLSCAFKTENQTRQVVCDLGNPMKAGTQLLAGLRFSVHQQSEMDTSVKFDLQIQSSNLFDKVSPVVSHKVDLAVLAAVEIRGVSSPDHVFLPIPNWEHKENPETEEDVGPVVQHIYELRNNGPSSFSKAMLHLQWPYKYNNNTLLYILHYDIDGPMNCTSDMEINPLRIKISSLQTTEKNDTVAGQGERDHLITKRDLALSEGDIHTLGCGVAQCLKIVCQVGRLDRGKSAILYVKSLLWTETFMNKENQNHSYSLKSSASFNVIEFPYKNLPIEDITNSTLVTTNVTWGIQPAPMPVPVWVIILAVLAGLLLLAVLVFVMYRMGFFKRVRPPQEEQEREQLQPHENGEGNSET
T1 sequence (P05106 27-788, form in doubt, chain 2 of 2): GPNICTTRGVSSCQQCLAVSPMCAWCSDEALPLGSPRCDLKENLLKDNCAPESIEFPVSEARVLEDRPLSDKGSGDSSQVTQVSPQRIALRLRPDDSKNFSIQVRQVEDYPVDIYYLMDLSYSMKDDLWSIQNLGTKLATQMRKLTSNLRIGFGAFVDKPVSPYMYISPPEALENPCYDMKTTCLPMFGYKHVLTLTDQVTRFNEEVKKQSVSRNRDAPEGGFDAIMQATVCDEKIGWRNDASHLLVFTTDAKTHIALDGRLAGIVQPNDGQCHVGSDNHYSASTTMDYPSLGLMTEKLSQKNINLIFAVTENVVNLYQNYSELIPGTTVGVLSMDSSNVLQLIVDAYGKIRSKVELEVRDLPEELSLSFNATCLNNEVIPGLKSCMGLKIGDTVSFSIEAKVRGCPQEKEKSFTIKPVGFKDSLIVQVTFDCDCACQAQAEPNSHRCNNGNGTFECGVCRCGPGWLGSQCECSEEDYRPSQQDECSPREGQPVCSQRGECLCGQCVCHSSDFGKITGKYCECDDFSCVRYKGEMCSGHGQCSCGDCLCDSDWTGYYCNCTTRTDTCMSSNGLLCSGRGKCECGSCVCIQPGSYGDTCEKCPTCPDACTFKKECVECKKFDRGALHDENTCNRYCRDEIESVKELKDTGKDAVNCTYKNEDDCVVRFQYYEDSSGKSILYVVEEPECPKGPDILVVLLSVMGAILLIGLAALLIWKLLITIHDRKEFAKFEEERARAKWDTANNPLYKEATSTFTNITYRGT

The first assay concerns the target T1, integrin αvβ3, purified from human placenta (human, UniProt P06756 31-1048; P05106 27-788).
T1 construct: mature; Native heterodimer, immobilized on ELISA plates or on the BIAcore chip; biotinylated in capture lift and capture ELISA screens; also called αvβ3 receptor; vitronectin receptor
As to the kind of experiment: ELISA titration of Fab on immobilized αvβ3. (In an ELISA, binding on a coated surface is turned into a signal by an enzyme label.)
Description: Just prior to use, the plates were washed two times and were then incubated 1 h at 25° C. with various dilutions of Fab. […] All dilutions and washes were in 50 mM Tris-HCl, pH 7.4, 100 mM NaCl, 2 mM CaCl₂, and 1 mM MgCl₂.
Take B1: the “fold enhanced binding over parent LM609 grafted antibody” value (“fold enhanced binding” for short) is over 3 fold.
For the molecule B2, the “fold enhanced binding” value was over 3 fold.
Consider B3, for which the “fold enhanced binding” value is over 3 fold.
In the case of B4, the “fold enhanced binding” value is over 3 fold.
Regarding B5, the “fold enhanced binding” value was over 3 fold.

The target in a further assay is T1, integrin αvβ3, purified from human …. As to the kind of experiment: SPR (BIAcore), purified Fab over immobilized αvβ3. Background: Surface plasmon resonance follows binding to a sensor surface in real time, without labels.
Description: (§1) The affinities of select variants were further characterized by utilizing surface plasmon resonance (BIAcore) to measure the association and dissociation rates of purified Fab with immobilized αᵥβ₃. […] To obtain association rate constants (kₒₙ), the binding rate at five different Fab concentrations, ranging from 5-40 μg/ml in 50 mM Tris-HCl, pH 7.4, 100 mM NaCl, 2 mM CaCl₂, and 1 mM MgCl₂, was determined at a flow rate of 10 μl/min. Dissociation rate constants (koff) were the average of five measurements obtained by analyzing the dissociation phase at an increased flow rate (40 μl/min). Sensorgrams were analyzed with the BIAevaluation 2.1 program (Pharmacia). Residual Fab was removed after each measurement with 10 mM HCl, 2 mM CaCl₂ and 1 mM MgCl₂.
Take B6: binding was put at a Kd of 27.6 nM, the koff was found to be 0.00497 s⁻¹ and the association rate constant (kon) turned out to be 180000 M⁻¹ s⁻¹.

The target is the same in another assay. As to the kind of experiment: SPR (BIAcore), purified Fab over immobilized αvβ3. This is another data set of the same source.
Description: as §1
As for B6, binding was characterised by a dissociation constant (Kd) of 27.6 nM, the off-rate (koff) stood at 0.00497 s⁻¹ and the kon turned out to be 180000 M⁻¹ s⁻¹.
B7 returned a Kd of 0.5 nM, an off-rate (koff) of 0.000137 s⁻¹ and a kon of 265000 M⁻¹ s⁻¹.
B8: the affinity, expressed as Kd, was 0.4 nM; the off-rate (koff) was found to be 0.000158 s⁻¹; the association rate constant (kon) was 410000 M⁻¹ s⁻¹.
B9 yielded an equilibrium dissociation constant (Kd) of 1.5 nM, a koff of 0.000316 s⁻¹ and a kon of 215000 M⁻¹ s⁻¹.
B10 registered a Kd of 0.4 nM, a koff of 0.000229 s⁻¹ and an association rate constant (kon) of 603000 M⁻¹ s⁻¹.
B11 gave an equilibrium dissociation constant (Kd) of 0.3 nM, a koff of 0.000147 s⁻¹ and a kon of 448000 M⁻¹ s⁻¹.
As for B12, the Kd was 0.5 nM, the koff worked out at 0.00014 s⁻¹ and the kon was 279000 M⁻¹ s⁻¹.
With B13, the Kd amounted to 0.5 nM, the koff was 0.000138 s⁻¹ and the on-rate constant (kon) turned out to be 251000 M⁻¹ s⁻¹.
As for B14, binding was put at a Kd of 0.4 nM, the koff worked out at 0.000187 s⁻¹ and the kon came out at 504000 M⁻¹ s⁻¹.
On to B15, for which binding was put at a Kd of 0.9 nM, the koff came out at 0.000192 s⁻¹ and the on-rate (kon) is 225000 M⁻¹ s⁻¹.
As to B16, the dissociation constant (Kd) turned out to be 0.7 nM, the koff turned out to be 0.00028 s⁻¹ and the on-rate constant (kon) was found to be 389000 M⁻¹ s⁻¹.
The molecule B17 registered a Kd of 0.6 nM, a koff of 0.00028 s⁻¹ and a kon of 475000 M⁻¹ s⁻¹.
Taken in the same sequence, the figures for B18 were 1.2 nM, 0.000236 s⁻¹ and 204000 M⁻¹ s⁻¹.
Turning to B19, the Kd worked out at 0.5 nM, the koff was 0.000343 s⁻¹ and the kon was 675000 M⁻¹ s⁻¹.
B20 showed a Kd of 0.5 nM, a koff of 0.000135 s⁻¹ and a kon of 266000 M⁻¹ s⁻¹.

The next assay has the same target. Nature of the assay: SPR (BIAcore), purified Fab over immobilized αvβ3. The source holds these as a separate data set.
As to B7, the “fold slower dissociation rate than parent” value was over 10 fold.
On to B8, for which the “fold slower dissociation rate than parent” value is over 10 fold.
Take B9: the “fold greater affinity than parent LM609 grafted antibody” value stood at 18 fold and the “fold slower dissociation rate than parent” value is over 10 fold.
As to B10, the “fold enhanced affinity over parent LM609 grafted antibody” value (“fold enhanced affinity” below) was over 50 fold and the “fold slower dissociation rate than parent” value was over 10 fold.
Take B11: the “fold greater affinity than LM609 grafted antibody Fab” value is about 90 fold, the “fold greater affinity than parent LM609 grafted antibody” value is 92 fold and the “fold slower dissociation rate than parent” value was over 10 fold.
For B12, the “fold enhanced affinity” value was over 50 fold and the “fold slower dissociation rate than parent” value was over 10 fold.
For B13, the “fold enhanced affinity” value was over 50 fold and the “fold slower dissociation rate than parent” value is over 10 fold.
As to B14, the “fold slower dissociation rate than parent” value was over 10 fold.
B15: the “fold slower dissociation rate than parent” value was over 10 fold.
B16: the “fold greater association rate than parent” value was 2 to 4 fold and the “fold slower dissociation rate than parent” value is over 10 fold.
Turning to B17, the “fold slower dissociation rate than parent” value is over 10 fold.
Take B18: the “fold slower dissociation rate than parent” value is over 10 fold.
Regarding B19, the “fold greater affinity than parent LM609 grafted antibody” value was about 55 fold, the “fold greater association rate than parent” value is 2 to 4 fold and the “fold slower dissociation rate than parent” value was over 10 fold.
As to B20, the “fold slower dissociation rate than parent” value is over 10 fold.
